Test results taken from US20020068696A1 (published 2002).

B1: deletion construct TRADE 1-218 (Flag-tagged) (receptor)
chain: KVTCESGDCRQQEFRDRSGNCVPCNQCGPGMELSKECGFGYGEDAQCVTCRLHRFKEDWGFQKCKPCLDCAVVNRFQKANCSATSDAICGDCLPGFYRKTKLVGFQDMECVPCGDPPPPYEPHCASKVNLVKIASTASSPRDTALAAVICSALATVLLALLILCVIYCKRQFMEKKPSWSLRSQDIQYNGSEL
notes: Putative 25-residue signal left out; not shown: Flag tag
B2: Flag-tagged TRADEα (receptor)
chain: KVTCESGDCRQQEFRDRSGNCVPCNQCGPGMELSKECGFGYGEDAQCVTCRLHRFKEDWGFQKCKPCLDCAVVNRFQKANCSATSDAICGDCLPGFYRKTKLVGFQDMECVPCGDPPPPYEPHCASKVNLVKIASTASSPRDTALAAVICSALATVLLALLILCVIYCKRQFMEKKPSWSLRSQDIQYNGSELSCFDRPQLHEYAHRACCQCRRDSVQTCGPVRLLPSMCCEEACSPNPATLGCGVHSAASLQARNAGPAGEMVPTFFGSLTQSICGEFSDAWPLMQNPMGGDNISFCDSYPELTGEDIHSLNPELESSTSLDSNSSQDLVGGAVPVQSHSENFTAATDLSRYNNTLVESASTQDALTMRSQLDQESGAIIHPATQTSLQEA
notes: Full-length isoform expressed in 293T cells and tested in cell lysates by co-immunoprecipitation; Position of the Flag tag unknown (written last here only for want of information); Putative 25-residue signal left out; also called Flag tagged TRADE construct; not shown: Flag tag
B3: Flag-tagged TRADEβ (receptor)
chain: KVTCETGDCRQQEFRDRSGNCVPCNQCGPGMELSKECGFGYGEDAQCVTCRLHRFKEDWGFQKCKPCLDCAVVNRFQKANCSATSDAICGDCLPGFYRKTKLVGFQDMECVPCGDPPPPYEPHCASKVNLVKIASTASSPRDTALAAVICSALATVLLALLILCVIYCKRQFMEKKPSWSLRSQDIQYNGSELSCLDRPQLHEYAHRACCQCRRDSVQTCGPVRLLPSMCCEEACSPNPATLGCGVHSAASLQARNAGPAGEMVPTFFGSLTQSICGEFSDAWPLMQNPMGGDNISFCDSYPELAGEDIHSLNPELESSTSLDSNSSQDLVGGAVPVQSHSENFTAATDLSRYNNTLVESASTQDALTMRSQLDQESGAIIHPATQTSLQVRQRLGSL
notes: Full-length isoform expressed in 293T cells and tested in cell lysates by co-immunoprecipitation; Position of the Flag tag unknown; Putative 25-residue signal left out; also called Flag tagged TRADE construct; not shown: Flag tag

Key:
HA-TRAF3 = target: T1, HA-TRAF3 (UniProt Q13114 1-568, limits assumed); assay: co-immunoprecipitation from 293T lysates, western blot
T1 construct: not shown: HA tag
T1 sequence (looked up): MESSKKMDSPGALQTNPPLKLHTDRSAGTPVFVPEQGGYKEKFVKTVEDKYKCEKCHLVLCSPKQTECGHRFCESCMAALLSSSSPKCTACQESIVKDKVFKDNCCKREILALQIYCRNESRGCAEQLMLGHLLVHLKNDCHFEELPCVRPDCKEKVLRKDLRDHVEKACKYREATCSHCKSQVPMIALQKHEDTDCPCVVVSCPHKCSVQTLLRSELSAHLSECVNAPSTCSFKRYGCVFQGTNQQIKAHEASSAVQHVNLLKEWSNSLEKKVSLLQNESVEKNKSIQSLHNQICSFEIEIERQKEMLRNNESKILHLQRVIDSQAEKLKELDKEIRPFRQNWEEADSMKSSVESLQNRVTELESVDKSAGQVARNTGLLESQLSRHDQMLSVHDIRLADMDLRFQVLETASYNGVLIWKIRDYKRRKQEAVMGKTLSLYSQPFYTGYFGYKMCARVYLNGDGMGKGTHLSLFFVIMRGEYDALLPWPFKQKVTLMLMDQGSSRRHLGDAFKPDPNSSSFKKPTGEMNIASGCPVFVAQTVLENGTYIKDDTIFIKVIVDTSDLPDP

HA-TRAF2 = target: T2, HA-TRAF2 (UniProt Q12933 1-501, limits assumed); assay: as above
T2 construct: not shown: HA tag
T2 sequence (looked up): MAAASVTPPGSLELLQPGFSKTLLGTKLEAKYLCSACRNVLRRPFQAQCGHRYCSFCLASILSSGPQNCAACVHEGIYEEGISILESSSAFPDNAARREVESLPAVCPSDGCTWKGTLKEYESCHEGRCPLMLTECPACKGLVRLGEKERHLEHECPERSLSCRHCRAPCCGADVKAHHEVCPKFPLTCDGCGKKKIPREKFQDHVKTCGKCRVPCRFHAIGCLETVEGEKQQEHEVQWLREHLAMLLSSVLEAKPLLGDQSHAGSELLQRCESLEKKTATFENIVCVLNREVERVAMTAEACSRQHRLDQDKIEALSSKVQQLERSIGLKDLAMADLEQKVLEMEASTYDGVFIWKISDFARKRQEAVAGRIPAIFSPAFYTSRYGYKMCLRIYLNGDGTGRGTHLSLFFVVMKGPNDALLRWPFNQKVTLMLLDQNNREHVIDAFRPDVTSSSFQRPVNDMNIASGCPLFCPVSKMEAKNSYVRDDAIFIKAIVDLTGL

Binder | binding result (HA-TRAF3) | binding result (HA-TRAF2)
B1 | no binding | –
B2 | – | no binding
B3 | – | no binding
